Literature values, collected in patent EP0632082B1, “Preparation of activated carbamates of poly(alkylene glycol) and their use” ("HEYLECINA", Société Anonyme, priority 1993, dated 1995).

Conditions: modification with SC-mPEG

papaya proteinase III: papaya proteinase III modified with SC-mPEG
increase of specific activity: 250%
